We go through 1 substance from PMC8716136.

In the assay the target is CaMKIIδC-GFP T287A (phosphoresistant) (R. norvegicus). The assay is described as follows: FRET or BRET. In general terms: In BRET a luciferase serves as donor, and the signal depends on an acceptor being close.

Turning to “unlabeled CaM (calmodulin) (from UniProt P0DP23 1-149) (natural protein)”, the donor fluorescence (FDD) after 5 uM unlabeled CaM, % of initial intensity was 80%.
